This is an account of results in patent US20150344570A1 (published 2015).

The target of assay [1] is T1, FcγRIIa H (human, UniProt P12318 34-217).
T1 construct: extracellular domain; also called FcgRIIa H; 2aH; not shown: His tag attached to the C terminus
T1 sequence (looked up): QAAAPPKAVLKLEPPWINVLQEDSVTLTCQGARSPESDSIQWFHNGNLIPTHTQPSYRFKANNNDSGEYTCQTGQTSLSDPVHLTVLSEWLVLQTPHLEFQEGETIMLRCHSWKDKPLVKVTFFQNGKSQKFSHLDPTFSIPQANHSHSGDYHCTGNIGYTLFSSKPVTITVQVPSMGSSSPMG
The assay can be described thus: SPR; He/Con for FcγRIIa H divided by He/Con for FcγRIIb. (Surface plasmon resonance follows binding to a sensor surface in real time, without labels.)

The target of assay [2] is T1, FcγRIIa H. The assay can be described thus: SPR (Biacore), antibody captured on antigen peptide chip, FcγR as analyte; relative binding activity. The procedure:
(§1) The heterodimerized antibodies He Abs in which one of the H chains was introduced with an alteration were assayed for their binding activities to each activating FcγR and inhibitory FcγR according to the method described in Example 4. […] The activating FcγRs in FIGS. 26, 27, 28, and 29 are FcγRIa, FcγRIIa (R), FcγRIIa (H), and FcγRIIIa, respectively.
(§2) Analysis of interaction between objective antibody and the FcγR was carried out using Biacore T100 (GE Healthcare). HBS-EP+ (GE Healthcare) was used as the running buffer, and the measurement temperature was set to 25° C. Chips produced by immobilizing the antigen peptide by the amine coupling method to a Series S Sencor Chip CM5 (GE Healthcare), or alternatively, chips produced by allowing preliminarily biotinylated antigen peptides to interact with and immobilize onto a Series S Sensor Chip SA (certified) (GE Healthcare) were used. Antibodies of interest were captured onto an antigen peptide-immobilized chip, and allowed to interact to each FcγR diluted with running buffer. To regenerate and repeatedly use the chip, the antibodies captured on the chip were washed off by reacting 10 mM glycine-HCl, pH 1.5.

Another assay deals with T2, FcγRIIb (human, UniProt P31994 43-217).
T2 construct: extracellular domain; also called FcgRIIb; 2b; not shown: His tag attached to the C terminus
T2 sequence (looked up): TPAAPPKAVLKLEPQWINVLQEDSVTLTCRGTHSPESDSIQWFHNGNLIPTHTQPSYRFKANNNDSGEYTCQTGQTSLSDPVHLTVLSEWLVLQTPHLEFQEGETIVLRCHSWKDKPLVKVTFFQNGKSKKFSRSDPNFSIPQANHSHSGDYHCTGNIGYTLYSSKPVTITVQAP
The assay is described as above. The procedure:
as §1, §2

In assay [3] the target is T3, FcγRIa extracellular domain with C-terminal His tag (human, UniProt P12314 16-292).
T3 construct: extracellular domain; soluble analyte in Biacore; also called FcgRI; not shown: His tag at the C terminus
The assay can be described thus: SPR, binding relative to GpH7-A5/GpH7-B3/GpL16-k0 = 100.

For assay [4], the target named is T4, FcγRIIb extracellular domain with C-terminal His tag (human, UniProt P31994 43-217).
T4 construct: extracellular domain; soluble analyte in Biacore; also called FcgRIIb; not shown: His tag at the C terminus
T4 sequence (looked up): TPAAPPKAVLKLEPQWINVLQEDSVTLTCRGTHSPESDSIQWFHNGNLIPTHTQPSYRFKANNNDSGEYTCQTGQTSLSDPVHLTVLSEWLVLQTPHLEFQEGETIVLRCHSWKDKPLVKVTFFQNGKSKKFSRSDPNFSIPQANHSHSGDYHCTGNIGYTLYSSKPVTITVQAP
The description is as above.

The target in assay [5] is T3, FcγRIa extracellular domain with …. In words: SPR; He/Con_1a divided by He/Con_2b (FcγRIa against FcγRIIb). As to the method:
as §1, §2

T3 sequence (P12314 16-292): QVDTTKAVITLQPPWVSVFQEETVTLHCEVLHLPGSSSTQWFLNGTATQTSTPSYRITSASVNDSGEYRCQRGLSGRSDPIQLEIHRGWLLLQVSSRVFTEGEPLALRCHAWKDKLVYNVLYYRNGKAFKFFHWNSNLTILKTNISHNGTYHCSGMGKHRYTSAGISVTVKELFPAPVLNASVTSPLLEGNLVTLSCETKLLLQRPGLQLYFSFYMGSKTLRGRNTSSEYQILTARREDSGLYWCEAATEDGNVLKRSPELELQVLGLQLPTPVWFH

B1: GpH7-A5/GpH7-B3 variant D265_03V/GpL16-k0 (antibody, human IgG1, kappa)
heavy 1: not shown
heavy 2: not shown
light: DIVMTQSPLSLPVTPGEPASISCQASESLVHSNRNTYLHWYLQKPGQSPQLLIYKVSNRFSGVPDRFSGSGSGTDFTLKISRVEAEDVGVYYCSQNTHVPPTFGQGTKVEIERTVAAPSVFIFPPSDEQLKSGTASVVCLLNNFYPREAKVQWKVDNALQSGNSQESVTEQDSKDSTYSLSSTLTLSKADYEKHKVYACEVTHQGLSSPVTKSFNRGEC
notes: Heterodimerized anti-glypican-3 IgG1; mutation in one H chain only; also called He Ab
As to B1, the “He_2aH/2b (IIaH/IIb)” value with FcγRIIa H [1] was 1.42 ratio. For the same molecule, the He/Con_2aH with FcγRIIa H [2] was 4.6 % of GpH7-A5/GpH7-B3/GpL16-k0 (=100). Besides, in the assay with FcγRIIb, the He/Con_2b was 3.2 % of GpH7-A5/GpH7-B3/GpL16-k0 (=100).

B2: GpH7-A5/GpH7-B3 variant D265_11K/GpL16-k0 (antibody, human IgG1, kappa)
heavy 1: not shown
heavy 2: not shown
light: DIVMTQSPLSLPVTPGEPASISCQASESLVHSNRNTYLHWYLQKPGQSPQLLIYKVSNRFSGVPDRFSGSGSGTDFTLKISRVEAEDVGVYYCSQNTHVPPTFGQGTKVEIERTVAAPSVFIFPPSDEQLKSGTASVVCLLNNFYPREAKVQWKVDNALQSGNSQESVTEQDSKDSTYSLSSTLTLSKADYEKHKVYACEVTHQGLSSPVTKSFNRGEC
notes: as for B1
Regarding B2, the “He_2aH/2b (IIaH/IIb)” value in the assay with FcγRIIa H [1] worked out at 1.87 ratio. Moreover, in the assay with FcγRIIa H [2], the He/Con_2aH was 27.8 % of GpH7-A5/GpH7-B3/GpL16-k0 (=100). The He/Con_2b with FcγRIIb was 14.9 % of GpH7-A5/GpH7-B3/GpL16-k0 (=100).

B3: GpH7-A5/GpH7-B3 variant D265_06M/GpL16-k0 (antibody, human IgG1, kappa)
heavy 1: not shown
heavy 2: not shown
light: DIVMTQSPLSLPVTPGEPASISCQASESLVHSNRNTYLHWYLQKPGQSPQLLIYKVSNRFSGVPDRFSGSGSGTDFTLKISRVEAEDVGVYYCSQNTHVPPTFGQGTKVEIERTVAAPSVFIFPPSDEQLKSGTASVVCLLNNFYPREAKVQWKVDNALQSGNSQESVTEQDSKDSTYSLSSTLTLSKADYEKHKVYACEVTHQGLSSPVTKSFNRGEC
notes: as for B1
Turning to B3, the “He_2aH/2b (IIaH/IIb)” value with FcγRIIa H [1] came to 1.35 ratio. Further, the He/Con_2aH in the assay with FcγRIIa H [2] is 13.5 % of GpH7-A5/GpH7-B3/GpL16-k0 (=100). For the same molecule, the He/Con_2b with FcγRIIb was 10 % of GpH7-A5/GpH7-B3/GpL16-k0 (=100).

B4: GpH7-A5/GpH7-B3 variant P271_07I/GpL16-k0 (antibody, human IgG1, kappa)
heavy 1: not shown
heavy 2: not shown
light: DIVMTQSPLSLPVTPGEPASISCQASESLVHSNRNTYLHWYLQKPGQSPQLLIYKVSNRFSGVPDRFSGSGSGTDFTLKISRVEAEDVGVYYCSQNTHVPPTFGQGTKVEIERTVAAPSVFIFPPSDEQLKSGTASVVCLLNNFYPREAKVQWKVDNALQSGNSQESVTEQDSKDSTYSLSSTLTLSKADYEKHKVYACEVTHQGLSSPVTKSFNRGEC
notes: change in the GpH7-B3 H chain only; also called He Ab
With B4, the He/Con_1a in assay [3] is 102 % of control. In addition, in assay [4], the He/Con_2b is 76.8 % of control. Further, the “He_1a/2b (Ia/IIb)” value in assay [5] was determined as 1.33 ratio.

B5: GpH7-A5/GpH7-B3 variant P271_04F/GpL16-k0 (antibody, human IgG1, kappa)
heavy 1: not shown
heavy 2: not shown
light: DIVMTQSPLSLPVTPGEPASISCQASESLVHSNRNTYLHWYLQKPGQSPQLLIYKVSNRFSGVPDRFSGSGSGTDFTLKISRVEAEDVGVYYCSQNTHVPPTFGQGTKVEIERTVAAPSVFIFPPSDEQLKSGTASVVCLLNNFYPREAKVQWKVDNALQSGNSQESVTEQDSKDSTYSLSSTLTLSKADYEKHKVYACEVTHQGLSSPVTKSFNRGEC
notes: as for B4
Regarding B5, in assay [3], the He/Con_1a was 102 % of control. Further, in assay [4], the He/Con_2b was 59.5 % of control. In addition, the “He_1a/2b (Ia/IIb)” value in assay [5] is 1.71 ratio.

B6: GpH7-A5/GpH7-B3 variant D265_12R/GpL16-k0 (antibody, human IgG1, kappa)
heavy 1: not shown
heavy 2: not shown
light: DIVMTQSPLSLPVTPGEPASISCQASESLVHSNRNTYLHWYLQKPGQSPQLLIYKVSNRFSGVPDRFSGSGSGTDFTLKISRVEAEDVGVYYCSQNTHVPPTFGQGTKVEIERTVAAPSVFIFPPSDEQLKSGTASVVCLLNNFYPREAKVQWKVDNALQSGNSQESVTEQDSKDSTYSLSSTLTLSKADYEKHKVYACEVTHQGLSSPVTKSFNRGEC
notes: as for B1
Consider B6, for which, in the assay with FcγRIIa H [1], the “He_2aH/2b (IIaH/IIb)” value is 1.87 ratio. Further, the He/Con_2aH with FcγRIIa H [2] is 28 % of GpH7-A5/GpH7-B3/GpL16-k0 (=100). Also, in the assay with FcγRIIb, the He/Con_2b is 15 % of GpH7-A5/GpH7-B3/GpL16-k0 (=100).

B7: GpH7-A5/GpH7-B3 variant D265_04F/GpL16-k0 (antibody, human IgG1, kappa)
heavy 1: not shown
heavy 2: not shown
light: DIVMTQSPLSLPVTPGEPASISCQASESLVHSNRNTYLHWYLQKPGQSPQLLIYKVSNRFSGVPDRFSGSGSGTDFTLKISRVEAEDVGVYYCSQNTHVPPTFGQGTKVEIERTVAAPSVFIFPPSDEQLKSGTASVVCLLNNFYPREAKVQWKVDNALQSGNSQESVTEQDSKDSTYSLSSTLTLSKADYEKHKVYACEVTHQGLSSPVTKSFNRGEC
notes: as for B1
Turning to B7, the “He_2aH/2b (IIaH/IIb)” value in the assay with FcγRIIa H [1] came out at 1.28 ratio. Also, the He/Con_2aH with FcγRIIa H [2] is 4.1 % of GpH7-A5/GpH7-B3/GpL16-k0 (=100). For the same molecule, the He/Con_2b in the assay with FcγRIIb is 3.2 % of GpH7-A5/GpH7-B3/GpL16-k0 (=100).
